The record followed here is paper PMC2120827.

The target of this data set is GST-Sox17 (mouse, UniProt Q61473 24-366). Kind of data set: EMSA.
Sequence of GST-Sox17 (Q61473 24-366): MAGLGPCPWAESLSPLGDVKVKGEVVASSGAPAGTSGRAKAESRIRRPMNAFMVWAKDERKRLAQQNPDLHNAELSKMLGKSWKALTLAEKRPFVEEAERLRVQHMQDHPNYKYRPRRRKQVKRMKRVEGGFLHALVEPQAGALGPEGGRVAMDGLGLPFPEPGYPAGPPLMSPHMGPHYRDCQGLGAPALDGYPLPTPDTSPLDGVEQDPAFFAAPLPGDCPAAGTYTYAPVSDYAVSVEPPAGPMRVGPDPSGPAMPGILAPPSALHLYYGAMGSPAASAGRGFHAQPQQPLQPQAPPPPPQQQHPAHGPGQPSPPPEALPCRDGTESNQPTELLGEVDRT

Turning to GCAGAACAATGGCGTTAGCTCGCCATTGTTCTG (structured_DNA) [SCS6], the binding result is recorded as “binds”.
